Assay results reported in the DeepSol protein solubility set.

Assay: soluble on expression in E. coli; label from the status in PepcDB or PDB records

| Sequence | soluble on expression in E. coli |
| --- | --- |
| MSLQTKHIDDLKEALMCQRNNDDKLEDLVGKIVNDYHTYAGKRSELSYRCCAHYFAPSWNTPIENSMLWMGGCRPSSFIRLIYALCGSQAETQLSQYLLKIDDDFDINHGGFMSDLTATQLGKLNDLHLEVIKKEDKITKTSANFQDDVADLPIADVVHADVAVEDALDKHEEGMAVLLAEADKLRFETLRKIVDVVTPLQAVEFLLAGKRLQLSLHDRGRVRADVCGGVGGAAV | soluble |
| MGHHHHHHSHGNLVTELIYVHSKLLIADDNTVIIGSANINDRSMLGKRDSEMAVIVQDTETVPSVMDGKEYQAGRFARGLRLQCFRVVLGYLDDPSEDIQDPVSDKFFKEVWVSTAARNATIYDKVFRCLPNDEVHNLIQLRDFINKPVLAKEDPIRAEEELKKIRGFLVQFPFYFLSEESLLPSVGTKEAIVPMEVWT | not soluble |
| AEEFPVPNGFESAYREVDGVKLHYVKGGQGPLVMLVHGFGQTWYEWHQLMPELAKRFTVIAPDLPGLGQSEPPKTGYSGEQVAVYLHKLARQFSPDRPFDLVAHDIGIWNTYPMVVKNQADIARLVYMEAPIPDARIYRFPAFTAQGESLVWHFSFFAADDRLAETLIAGKERFFLEHFIKSHASNTEVFSERLLDLYARSYAKPHSLNASFEYYRALNESVRQNAELAKTRLQMPTMTLAGGGHGGMGTFQLEQMKAYAEDVEGHVLPGCGHWLPEECAAPMNRLVIDFLSRGRHHHHHH | soluble |
| MVQAEGLTKRYRKAVAVEGLTFGVGPGEVYALLGPNGAGKTTTLRLLSTLVRPSAGRALVAGFDVVREPLEVRRNLGLVNGGMRVYERLTGREVLEFFAGFYGLKGRAFLGALDWVVDLLEMEETLDKKVGEMSTGMRQKVVIARAILHRPKVLLLDEATAGLDIFARRALLDFVKAYRDLGHAVIYSTHVMGEAEEVADRVGFLHRGRLVYEGSKEEALALGEGSLERAFVRQVRGA | soluble |
| KKPMFLCVLSSTKTAHIPKLSAAGKTAELTDYTPAGDAELMETGNIISVPVLPMTPPYDTPTPAIMTRSALKLTDAPYHFINSGLIVTPDVPCIDLKANPGEDIREPVAVMDVQGIYERAKLLAKRLRNQADHVVIGESIPGGTTTAMGVLMALGYNGNVSSSADENPLELKKQVVEEGMKASGLTFGCLKDDPMKAIACMGDPMMPAVAGLVAGFQDTDTSVVLAGGTQMAAVYALIKHMGLNTEKIAIATTRYVVEDKSANFIQLTTTLGVPVVYVADPGFGKSSMKGLHRYETGTIKEGAGAGGAMYLAG | not soluble |
| MGSDKIHHHHHHMTIDTNFSKWFLQPSKESAQMYETVMQRALTLVVEHMKEAANPFSGADRHSIQQAVKDAAFISYSGEPIDGVIRAIQEGVMKHSLWISHPSAMAHLHCPPLLPSLVAEVVINALNQSMDSWDQSPSATYVETELLRFFTRSIGYSDLGDGVFTSGGTQSNYMGMLLARNKICESAFATNVQEEGLPVDARKLRILCSQEAHFSVQKSAAQLGLGANAVVQVATNERQQLCVNETRQTINELRLKGLIPFMIVATAGTTDFGSIDKLREIAELAREQELWLHVDAAYGGALLFSRQYGHLLNGLHLADSITIDFHKFYYQSISCGAFFVKDRHEFERIRFHADYLNPEEDKEADIINLVEKSVQTTKRFDALKLLVTFKWMGTEQFGQMIDYTIQLAKETGELLRRYGFDVLNDPELNAVVFRYVPECHRDDQSYVDQLNLTLQRHFYERGDLIMAKTKQRGHVYLKFTMLNPLNTIENMKTQIQKVKKAGIEFEKTQGAIRHEHVIHS | not soluble |
| SARIILERFLQGHEQTPPSKSVINSMLRDPSQIPDGVLANQVYQCIVNDCCYGPLVDCIKHAIGYEHEVLLRDLLLKKNLSFLDEDQLRAKGYDKTPDFILQVPVAVEGHIIHWIESKASFGDECSHHAYLHGQFWSYWNRFGPGLVIYWYGFIQELDCNRERGILLKASFPTDIVTLCHSTA | soluble |
| MGSDKIHHHHHHVVNQAQKMNFLTHLHLADISKTHLAANVAGNYIQAPIAQAPVEFRQALWLNQEINTLCASHELTIELMEAFPAPLRSIAAELMAVSFDYYLAYYWEEYHHQPLNEFSHKAYDALENFAAQGIDQYHPEALIKLLPTIRSQDWLGSYATENGLQQALAQVAKPHPQAALFKDAHKVVNKMQIEIETTFRTFYPQLMAYSRIWSRKTPAEYLP | not soluble |
| MSLVSTRLNDSQCLVQFSCNRFAKILLGQTLIWVNPSNTRKWGKSKKVNPQITSMEPLELLKKYVRDEKLIKHCIATAAVMKSLARELGEDEEKWWTIGILHDIDYEQTQGDMEKHGLVGAEILLKEGVEEEIAEVVKRHNHMLFGDYEKPVEIALQAADSVSGLVIACALVKGGKITEVTPKTVKKKFKEKSFAAGCDRDRIRMIEKLGMPLEKLYEVAIRGLTEVKDELGLS | not soluble |
